In the assay the target is EGFP-HDQ74 (mutant huntingtin exon 1 with 74 glutamine residues). The experiment in a line: FRET or BRET. (In general: Bioluminescence resonance energy transfer reports proximity on the nanometre scale.)

B1: AavLEA1-mCherry (natural protein)
chain: MSSQQNQNRQGEQQEQGYMEAAKEKVVNAWESTKETLSSTAQAAAEKTAEFRDSAGETIRDLTGQAQEKGQEFKERAGEKAEETKQRAGEKMDETKQRAGEMRENAGQKMEEYKQQGKGKAEELRDTAAEKLHQAGEKVKGRD
On to B1, for which the dFRET is 3%.

Values taken from publication PMC5365143.
